The supplement of paper PMC9112550, “Optimization of the antimicrobial peptide Bac7 by deep mutational scanning” (BMC Biology, 2022)

Tested on: Escherichia coli TOP10
Assay: shrunken log2 fold change of peptide-encoding DNA abundance (4.5 h post-induction vs induction); higher = less antimicrobial activity (less host growth inhibition)
Conditions: time post-induction: 4.5 h; library: site-saturation at positions 5, 18, 19, 20
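Also: peptides expressed intracellularly from a pBAD plasmid library in pooled LB shake-flask culture, induced with 0.3% L-arabinose, DNA abundance read by NGS, three biological replicates, DESeq2 with apeglm shrinkage.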

| Sequence | shrunken log2 fold change |
| --- | --- |
| RRIRMRPPRLPRPRPRPSSAPRP | 0.514 |
| RRIRMRPPRLPRPRPRPSTCPRP | -0.0128 |
| RRIRMRPPRLPRPRPRPSVLPRP | 0.0464 |
| RRIRMRPPRLPRPRPRPSWNPRP | -0.15 |
| RRIRMRPPRLPRPRPRPSWPPRP | 0.144 |
| RRIRMRPPRLPRPRPRPTAAPRP | 2.79 |
| RRIRMRPPRLPRPRPRPTACPRP | 1.02 |
| RRIRMRPPRLPRPRPRPTAEPRP | 2.75 |
| RRIRMRPPRLPRPRPRPTAKPRP | 0.255 |
| RRIRMRPPRLPRPRPRPTCCPRP | 0.213 |
| RRIRMRPPRLPRPRPRPTCWPRP | 0.816 |
| RRIRMRPPRLPRPRPRPTDDPRP | 0.637 |
| RRIRMRPPRLPRPRPRPTEDPRP | 1.9 |
| RRIRMRPPRLPRPRPRPTFCPRP | 0.282 |
| RRIRMRPPRLPRPRPRPTFFPRP | 0.229 |
| RRIRMRPPRLPRPRPRPTFVPRP | 0.134 |
| RRIRMRPPRLPRPRPRPTGAPRP | 1.25 |
| RRIRMRPPRLPRPRPRPTHFPRP | 0.86 |
| RRIRMRPPRLPRPRPRPTHGPRP | 0.188 |
| RRIRMRPPRLPRPRPRPTHKPRP | 0.275 |
| RRIRMRPPRLPRPRPRPTKMPRP | 0.745 |
| RRIRMRPPRLPRPRPRPTMAPRP | 1.03 |
| RRIRMRPPRLPRPRPRPTMCPRP | 0.674 |
| RRIRMRPPRLPRPRPRPTMLPRP | 0.0475 |
| RRIRMRPPRLPRPRPRPTNFPRP | -0.0912 |

| Sequence | shrunken log2 fold change |
| --- | --- |
| RRIRMRPPRLPRPRPRPTQDPRP | 1.24 |
| RRIRMRPPRLPRPRPRPTQLPRP | 0.668 |
| RRIRMRPPRLPRPRPRPTTDPRP | 0.815 |
| RRIRMRPPRLPRPRPRPTTPPRP | 1.15 |
| RRIRMRPPRLPRPRPRPTTRPRP | 0.832 |
| RRIRMRPPRLPRPRPRPTVAPRP | 0.269 |
| RRIRMRPPRLPRPRPRPTVGPRP | 0.146 |
| RRIRMRPPRLPRPRPRPTWGPRP | 0.564 |
| RRIRMRPPRLPRPRPRPTYHPRP | -0.242 |
| RRIRMRPPRLPRPRPRPTYIPRP | -1.08 |
| RRIRMRPPRLPRPRPRPVAAPRP | 2.1 |
| RRIRMRPPRLPRPRPRPVACPRP | 0.122 |
| RRIRMRPPRLPRPRPRPVAHPRP | 0.148 |
| RRIRMRPPRLPRPRPRPVAKPRP | 1.43 |
| RRIRMRPPRLPRPRPRPVAYPRP | 0.214 |
| RRIRMRPPRLPRPRPRPVCFPRP | 0.126 |
| RRIRMRPPRLPRPRPRPVFKPRP | -0.111 |
| RRIRMRPPRLPRPRPRPVFPPRP | 0.0941 |
| RRIRMRPPRLPRPRPRPVIDPRP | 0.0403 |
| RRIRMRPPRLPRPRPRPVLAPRP | 0.493 |
| RRIRMRPPRLPRPRPRPVMFPRP | 0.199 |
| RRIRMRPPRLPRPRPRPVNNPRP | -0.0848 |
| RRIRMRPPRLPRPRPRPVNQPRP | -0.0449 |
| RRIRMRPPRLPRPRPRPVNSPRP | 0.00706 |
| RRIRMRPPRLPRPRPRPVPYPRP | 0.193 |

| Sequence | shrunken log2 fold change |
| --- | --- |
| RRIRMRPPRLPRPRPRPVQSPRP | 0.206 |
| RRIRMRPPRLPRPRPRPVQYPRP | 0.0273 |
| RRIRMRPPRLPRPRPRPVRDPRP | 0.882 |
| RRIRMRPPRLPRPRPRPVRFPRP | 0.725 |
| RRIRMRPPRLPRPRPRPVRMPRP | 0.132 |
| RRIRMRPPRLPRPRPRPVSMPRP | 0.382 |
| RRIRMRPPRLPRPRPRPVTDPRP | -0.0129 |
| RRIRMRPPRLPRPRPRPVWPPRP | 1.07 |
| RRIRMRPPRLPRPRPRPVWVPRP | 0.0789 |
| RRIRMRPPRLPRPRPRPVYGPRP | -0.294 |
| RRIRMRPPRLPRPRPRPVYLPRP | -0.683 |
| RRIRMRPPRLPRPRPRPWEIPRP | -0.00146 |
| RRIRMRPPRLPRPRPRPWEQPRP | 0.0405 |
| RRIRMRPPRLPRPRPRPWFWPRP | 0.221 |
| RRIRMRPPRLPRPRPRPWGMPRP | 0.187 |
| RRIRMRPPRLPRPRPRPWHAPRP | 0.098 |
| RRIRMRPPRLPRPRPRPWHNPRP | -0.0135 |
| RRIRMRPPRLPRPRPRPWHTPRP | 0.0985 |
| RRIRMRPPRLPRPRPRPWIGPRP | -0.0941 |
| RRIRMRPPRLPRPRPRPWKIPRP | -0.0114 |
| RRIRMRPPRLPRPRPRPWLFPRP | 0.457 |
| RRIRMRPPRLPRPRPRPWMDPRP | -0.0276 |
| RRIRMRPPRLPRPRPRPWMIPRP | -0.136 |
| RRIRMRPPRLPRPRPRPWPGPRP | 0.528 |
| RRIRMRPPRLPRPRPRPWRCPRP | 0.0452 |

| Sequence | shrunken log2 fold change |
| --- | --- |
| RRIRMRPPRLPRPRPRPWRLPRP | -0.0743 |
| RRIRMRPPRLPRPRPRPWRYPRP | 0.166 |
| RRIRMRPPRLPRPRPRPWTKPRP | -0.0384 |
| RRIRMRPPRLPRPRPRPWVHPRP | 0.031 |
| RRIRMRPPRLPRPRPRPWVPPRP | -0.0184 |
| RRIRMRPPRLPRPRPRPWWLPRP | 0.0657 |
| RRIRMRPPRLPRPRPRPWYSPRP | -0.427 |
| RRIRMRPPRLPRPRPRPWYYPRP | -0.0257 |
| RRIRMRPPRLPRPRPRPYACPRP | -0.0298 |
| RRIRMRPPRLPRPRPRPYAHPRP | 0.013 |
| RRIRMRPPRLPRPRPRPYAPPRP | -0.24 |
| RRIRMRPPRLPRPRPRPYDMPRP | -0.0585 |
| RRIRMRPPRLPRPRPRPYDWPRP | -0.133 |
| RRIRMRPPRLPRPRPRPYGWPRP | 0.0956 |
| RRIRMRPPRLPRPRPRPYITPRP | -0.393 |
| RRIRMRPPRLPRPRPRPYKLPRP | 0.00411 |
| RRIRMRPPRLPRPRPRPYKPPRP | 0.0559 |
| RRIRMRPPRLPRPRPRPYMSPRP | -0.00176 |
| RRIRMRPPRLPRPRPRPYNEPRP | -0.811 |
| RRIRMRPPRLPRPRPRPYNNPRP | -0.4 |
| RRIRMRPPRLPRPRPRPYPLPRP | -0.141 |
| RRIRMRPPRLPRPRPRPYPWPRP | -0.274 |
| RRIRMRPPRLPRPRPRPYQHPRP | 0.0551 |
| RRIRMRPPRLPRPRPRPYQIPRP | -0.0607 |
| RRIRMRPPRLPRPRPRPYRHPRP | 0.0311 |

| Sequence | shrunken log2 fold change |
| --- | --- |
| RRIRMRPPRLPRPRPRPYSRPRP | -0.253 |
| RRIRMRPPRLPRPRPRPYTHPRP | -0.174 |
| RRIRMRPPRLPRPRPRPYTRPRP | -0.013 |
| RRIRMRPPRLPRPRPRPYYLPRP | -0.326 |
| RRIRMRPPRLPRPRPRPYYQPRP | -0.856 |
| RRIRNRPPRLPRPRPRPAAPPRP | 0.331 |
| RRIRNRPPRLPRPRPRPAARPRP | 0.161 |
| RRIRNRPPRLPRPRPRPACDPRP | -0.00482 |
| RRIRNRPPRLPRPRPRPACYPRP | -0.265 |
| RRIRNRPPRLPRPRPRPADFPRP | 0.0143 |
| RRIRNRPPRLPRPRPRPADYPRP | -0.24 |
| RRIRNRPPRLPRPRPRPAEHPRP | -0.201 |
| RRIRNRPPRLPRPRPRPAGMPRP | -0.126 |
| RRIRNRPPRLPRPRPRPAHWPRP | 0.142 |
| RRIRNRPPRLPRPRPRPAITPRP | 0.134 |
| RRIRNRPPRLPRPRPRPAKLPRP | -0.153 |
| RRIRNRPPRLPRPRPRPALAPRP | 0.1 |
| RRIRNRPPRLPRPRPRPAMFPRP | -0.204 |
| RRIRNRPPRLPRPRPRPAMRPRP | 0.842 |
| RRIRNRPPRLPRPRPRPANSPRP | -0.153 |
| RRIRNRPPRLPRPRPRPAPHPRP | 0.227 |
| RRIRNRPPRLPRPRPRPAQNPRP | 0.861 |
| RRIRNRPPRLPRPRPRPAQVPRP | 0.157 |
| RRIRNRPPRLPRPRPRPARCPRP | 0.319 |
| RRIRNRPPRLPRPRPRPARMPRP | 0.991 |

| Sequence | shrunken log2 fold change |
| --- | --- |
| RRIRNRPPRLPRPRPRPATSPRP | -0.214 |
| RRIRNRPPRLPRPRPRPAVRPRP | 0.2 |
| RRIRNRPPRLPRPRPRPAWCPRP | 0.0129 |
| RRIRNRPPRLPRPRPRPAWDPRP | 0.151 |
| RRIRNRPPRLPRPRPRPAWTPRP | 0.182 |
| RRIRNRPPRLPRPRPRPAWWPRP | 0.293 |
| RRIRNRPPRLPRPRPRPAYDPRP | -0.119 |
| RRIRNRPPRLPRPRPRPAYNPRP | -0.259 |
| RRIRNRPPRLPRPRPRPAYYPRP | -0.0433 |
| RRIRNRPPRLPRPRPRPCARPRP | -0.213 |
| RRIRNRPPRLPRPRPRPCCQPRP | -0.6 |
| RRIRNRPPRLPRPRPRPCDCPRP | 0.0143 |
| RRIRNRPPRLPRPRPRPCESPRP | -0.00141 |
| RRIRNRPPRLPRPRPRPCGMPRP | -0.45 |
| RRIRNRPPRLPRPRPRPCGQPRP | 0.0151 |
| RRIRNRPPRLPRPRPRPCIVPRP | 0.045 |
| RRIRNRPPRLPRPRPRPCLLPRP | -0.414 |
| RRIRNRPPRLPRPRPRPCPKPRP | 0.0342 |
| RRIRNRPPRLPRPRPRPCQFPRP | -0.0212 |
| RRIRNRPPRLPRPRPRPCSHPRP | -0.331 |
| RRIRNRPPRLPRPRPRPCSTPRP | -0.194 |
| RRIRNRPPRLPRPRPRPCWCPRP | -0.147 |
| RRIRNRPPRLPRPRPRPCYEPRP | -0.0244 |
| RRIRNRPPRLPRPRPRPCYTPRP | -0.0126 |
| RRIRNRPPRLPRPRPRPDAFPRP | -0.0836 |
